Measured values reported in patent publication US20180162928A1 (Janssen / Centocor, published 2018).

Legend:
Test in all cases: ELISA, lysate on plate-bound antigen
[1] = biological target: human serum albumin (human) (UniProt P02768)
[2] = biological target: unrelated Fc-fused recombinant protein
[3] = biological target: T1, recombinant biotinylated PD-L1 (rhPD-L1/Fc Chimera, R&D Systems 156-B7) (human, UniProt Q9NZQ7 19-238, biotinylated (sites not given))
T1 construct: Bought Fc chimera; also called human PD-L1
In short: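 On streptavidin plates coated with biotinylated PD-L1 (unrelated Fc-fusion protein and HSA as negative controls), diluted lysate was applied for 1 h. Bound FN3 domains detected with HRP-conjugated anti-FN3 antibody and POD substrate.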

human serum albumin (human), sequence (P02768 25-609 limits assumed): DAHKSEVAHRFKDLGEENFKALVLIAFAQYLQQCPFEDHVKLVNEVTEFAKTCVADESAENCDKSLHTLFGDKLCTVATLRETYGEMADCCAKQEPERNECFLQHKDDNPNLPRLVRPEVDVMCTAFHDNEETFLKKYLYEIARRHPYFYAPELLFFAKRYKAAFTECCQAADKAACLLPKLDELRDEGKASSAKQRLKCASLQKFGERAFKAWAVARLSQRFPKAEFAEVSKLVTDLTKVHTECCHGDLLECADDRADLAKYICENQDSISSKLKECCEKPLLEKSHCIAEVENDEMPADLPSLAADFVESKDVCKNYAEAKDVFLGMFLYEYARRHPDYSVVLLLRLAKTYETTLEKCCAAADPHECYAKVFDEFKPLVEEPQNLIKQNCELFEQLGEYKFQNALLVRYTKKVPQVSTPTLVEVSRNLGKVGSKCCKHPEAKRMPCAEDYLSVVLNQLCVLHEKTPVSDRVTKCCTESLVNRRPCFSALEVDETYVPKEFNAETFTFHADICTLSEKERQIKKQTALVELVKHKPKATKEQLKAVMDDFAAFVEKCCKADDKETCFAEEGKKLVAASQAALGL
T1 sequence (Q9NZQ7 19-238, change not shown): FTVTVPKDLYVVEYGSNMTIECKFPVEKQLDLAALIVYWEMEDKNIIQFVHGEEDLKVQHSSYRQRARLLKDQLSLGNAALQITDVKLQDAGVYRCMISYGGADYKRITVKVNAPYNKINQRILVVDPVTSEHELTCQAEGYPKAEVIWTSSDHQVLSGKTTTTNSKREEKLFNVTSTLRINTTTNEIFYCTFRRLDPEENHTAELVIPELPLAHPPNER

ELISA HSA (RSU) [1] [RSU]	ELISA Fc Control (RSU) [2] [RSU]	ELISA PD-L1 Fc (RSU) [3] [RSU]	Binder
640	640	32100	ISOP121GR5P1F6 (designed binder, not shown: small tags and cut ends, FN3 domain; E. coli lysate in the ELISA) LPAPKNLVVSRVTEDSARLSWTAPDAAFDSFDIRYHEYTWPGEAIVLLVPGSERSYDLTGLKPGTEYGVYINGVKGGFRSKPLFAWFTTGG
800	960	42000	ISOP121BR5P1E9 (designed binder, not shown: small tags and cut ends, FN3 domain; E. coli lysate in the ELISA) LPAPKNLVVSRVTEDSARLSWDSYRDYFDSFLIQYQESEKVGEAIVLTVPGSERSYDLTGLKPGTEYTVSIYGVYSRKHVVFVQSNPLSAIFTT
880	720	12900	ISOP121BR5P1F7 (designed binder, not shown: small tags and cut ends, FN3 domain; E. coli lysate in the ELISA) LPAPKNLVVSRVTEDSARLSWHDATWQYFDSFLIQYQESEKVGEAIVLTVPGSERSYDLTGLKPGTEYTVSIYGVFHRKHIDFVSNPLSAIFTT
720	800	137000	ISOP121BR5P1E2 (designed binder, not shown: small tags and cut ends, FN3 domain; E. coli lysate in the ELISA) LPAPKNLVVSRVTEDSARLSWWFPLEWFDSFLIQYQESEKVGEAIVLTVPGSERSYDLTGLKPGTEYTVSIYGVYTREHKSVWASNPLSAIFTT
720	720	61700	ISOP121GR5P1A2 (designed binder, not shown: small tags and cut ends, FN3 domain; E. coli lysate in the ELISA) LPAPKNLVVSRVTEDSARLSWTAPDAAFDSFKIQYIERYIPGEAIQLNVPGSERSYDLTGLKPGTEYSVIIPGVKGGRNSFPLWAWFTT
1040	1440	74600	ISOP121BR5P1H6 (designed binder, not shown: small tags and cut ends, FN3 domain; E. coli lysate in the ELISA) LPAPKNLVVSRVTEDSARLSWGYIDVSYFDSFLIQYQESEKVGEAIVLTVPGSERSYDLTGLKPGTEYTVSIYGVYSRPKAEFTSNPLSAIFTT

The remaining lines, values behind:

Binder	ELISA HSA (RSU) [1] [RSU]	ELISA Fc Control (RSU) [2] [RSU]	ELISA PD-L1 Fc (RSU) [3] [RSU]
ISOP121AR5P1F7 (designed binder, not shown: small tags and cut ends, FN3 domain; E. coli lysate in the ELISA) LPAPKNLVVSRVTEDSARLSWQEHWDTSSNFDSFLIQYQESEKVGEAIVLTVPGSERSYDLTGLKPGTEYTISIYGVYNRKVLFYSNPLSAIFTT	1040	720	64000
ISOP121AR5P1F3 (designed binder, not shown: small tags and cut ends, FN3 domain; E. coli lysate in the ELISA) LPAPKNLVVSRVTEDSARLSWPFNNYSEHFDSFLIQYQESEKVGEAIVLTVPGSERSYDLTGLKPGTEYTVSIYGVYERKTAFYSNPLSAIFTT	960	800	180000
ISOP121AR5P1H5 (designed binder, not shown: small tags and cut ends, FN3 domain; E. coli lysate in the ELISA) LPAPKNLVVSRVTEDSARLSWEDAVKHIWFDSFLIQYQESEKVGEAIVLTVPGSERSYDLTGLKPGTEYTVSIYGVWIASVWRSNPLSAIFTT	1120	960	171000
ISOP121AR5P1G10 (designed binder, not shown: small tags and cut ends, FN3 domain; E. coli lysate in the ELISA) LPAPKNLVVSRVTEDSARLSWEWLEHFDSFLIQYQESEKVGEAIVLTVPGSERSYDLTGLKPGTEYTVSIYGVYQRKVEFHSNPLSAIFTTT	1280	1360	232000
ISOP121AR5P1E7 (designed binder, not shown: small tags and cut ends, FN3 domain; E. coli lysate in the ELISA) LPAPKNLVVSRVTEDSARLSWHVYHEIDYFDSFLIQYQESEKVGEAIVLTVPGSERSYDLTGLKPGTEYTVSIYGVYQRKVEFYSNPLSAIFTT	6560	4240	327000
ISOP121BR5P1A6 (designed binder, not shown: small tags and cut ends, FN3 domain; E. coli lysate in the ELISA) LPAPKNLVVSRVTEDSARLSWASWLVAFFDSFLIQYQESEKVGEAIVLTVPGSERSYDLTGLKPGTEYTVSIYGVYQRHASAFVSNPLSAIFTT	720	720	11000
